Laboratory results as given in PMC7953435 (Cell host & microbe, 2021).

Target: N-terminal domain of SARS-CoV-2 spike (NTD, residues 1–330) (SARS-CoV-2, UniProt P0DTC2)
Assay: crystal structure

B1: antibody 2–51 Fab (Fab, V domains shown)
VH: QVQLVQSGAEVKKPGASVKVSCKVSGYTLIELSMHWVRQAPGKGLEWMGGFDPEDVETIYAQQFQGRVTMTEDTSTDTAYMELSSLRSEDTAVYYCATGWAYKSTWYFGYWGQGTLVTVSS
VL: QSALTQPPSASGSPGQSVTISCTGTSSDVGGYNYVSWYQQHPGKAPKLMIYEVSKRPSGVPDRFSGSKSGNTASLTVSGLQAEDEADYYCSSYAGSRMGFGGGTKLTVL
- binding result: binds
